Measurements as given in patent publication US20250059270A1.

Assays:
hyper IL-6 = experiment: cell-based or functional assay
[1] = biological target: human IL-6R on HEK-Blue IL6 reporter cells (human) (UniProt P08887); experiment: cell-based or functional assay
Sequence of human IL-6R on HEK-Blue IL6 reporter cells (human) (P08887 20-468): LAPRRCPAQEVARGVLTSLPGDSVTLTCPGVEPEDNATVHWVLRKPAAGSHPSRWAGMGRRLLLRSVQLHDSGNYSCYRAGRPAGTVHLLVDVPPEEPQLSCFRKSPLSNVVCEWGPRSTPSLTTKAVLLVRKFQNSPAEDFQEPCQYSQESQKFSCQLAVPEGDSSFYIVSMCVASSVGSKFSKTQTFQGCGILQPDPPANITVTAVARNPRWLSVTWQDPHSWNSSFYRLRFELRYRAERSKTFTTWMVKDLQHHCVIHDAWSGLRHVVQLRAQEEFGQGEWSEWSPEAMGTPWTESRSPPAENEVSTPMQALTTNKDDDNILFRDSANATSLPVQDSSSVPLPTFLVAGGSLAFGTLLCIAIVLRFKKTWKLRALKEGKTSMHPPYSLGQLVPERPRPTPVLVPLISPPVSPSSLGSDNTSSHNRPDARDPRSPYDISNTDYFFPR

trans-signaling, HEK-Blue IL6 cells, 200 pM hyper IL-6 (hyper IL-6): > 1 µM
IC50, HEK-Blue IL6 reporter cells, 20 pM IL-6 [1]: 1490 pM
IC50, cis-signaling, HEK-Blue IL6 cells, 20 pM free IL-6 [1]: 12.9 nM
IC90, HEK-Blue IL6 reporter cells, 20 pM IL-6 [1]: 23700 pM
B1: Tocilizumab (antibody, part only; not given: constant regions, V domains shown, not shown: another chain or arm of the molecule)
VH: QVQLQESGPGLVRPSQTLSLTCTVSGYSITSDHAWSWVRQPPGRGLEWIGYISYSGITTYNPSLKSRVTMLRDTSKNQFSLRLSSVTAADTAVYYCARSLARTTAMDYWGQGSLVTVSS
VL: DIQMTQSPSSLSASVGDRVTITCRASQDISSYLNWYQQKPGKAPKLLIYYTSRLHSGVPSRFSGSGSGTDFTFTISSLQPEDIATYYCQQGNTLPYTFGQGTKVEIK
